For 1 molecule, IC50 results are on record in patent publication US20220403048A1, “BINDING MOLECULES TO ARGINASE II [ARG2]” (Cancer Research Technology Limited, priority 2019, published 2022).

The target of one test is T1, trimeric human ARG2 (Homo sapiens, UniProt P78540).
T1 construct: human ARG2 (aa23-354); His10 (C); made in house; host or cells: E. coli BL21 (DE3)
T1 sequence (P78540 23-354): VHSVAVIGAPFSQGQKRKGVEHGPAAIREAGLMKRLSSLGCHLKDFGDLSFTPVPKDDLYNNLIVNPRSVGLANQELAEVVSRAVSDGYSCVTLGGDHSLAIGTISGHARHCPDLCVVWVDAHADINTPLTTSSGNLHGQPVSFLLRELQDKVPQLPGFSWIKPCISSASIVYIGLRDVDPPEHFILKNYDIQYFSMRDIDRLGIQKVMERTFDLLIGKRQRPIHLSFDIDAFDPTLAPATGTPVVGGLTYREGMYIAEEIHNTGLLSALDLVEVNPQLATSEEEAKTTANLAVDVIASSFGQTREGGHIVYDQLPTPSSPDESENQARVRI
Kind of test: Human trimeric ARG2 enzyme inhibition assay (urea production). The class given is biochemical. As to conditions: clones in scFv format, FIG. 9; read-out: Trimeric human ARG2 EIA IC50. As to the method:
Unpurified anti-ARG2 scFv fragments from periplasmic preparations were screened in an ARG2 enzyme inhibition assay using a Pherastar plate reader (BMG Labtech, Germany). In this assay, the ability of unpurified scFv to inhibit the enzymatic activity of trimeric ARG2 was determined by measuring the production of urea, the product of L-arginine turnover by ARG2.
Selection outputs were screened as unpurified bacterial periplasmic extracts containing scFv, prepared in 200 mM TES buffer pH 7.4, 0.5 mM EDTA and 0.5 M sucrose. 10 μl of unpurified scFv were added to a Greiner Bio-One® 384 well assay plate (Greiner Bio-one, UK; cat: 781901). This was followed by the addition of 5 μl of 1.6 μg/ml trimeric human ARG2 that had been diluted in 40 mM MnCl2, 100 mM tris-HCl, pH7.4 (4× enzyme buffer). […]
Urea was detected by the simultaneous addition of equal volumes of O-Phthaldialdehyde (1.5 mM O-Phthaldialdehyde, 7% H2SO4, 0.03% Brij L23) and N-(1-Napthyl)ethylenediamine (1.66 mM N-(1-Napthyl)ethylenediamine, 81 mM Boric acid, 21% H2SO4, 0.03% Brij L23) followed by an 18 minute incubation at room temperature before the colorimetric product was quantified on the Pherastar by measuring absorbance at 505 nm. […]
Data were analysed by calculating % maximum (max) control for each sample using the 505 nm absorbance data. % max control was determined according to equation 2. […]
IC50 values were determined by testing a dilution series of the purified scFv, prepared in TBS, in the ARG2 enzyme inhibition assay described in section 1.5, substituting the unpurified scFv periplasmic preparation with the purified scFv.
Background control wells were defined for each plate by the omission of substrate. […] Data were analysed by calculating % maximum (max) control for each sample. % max control was determined according to equation 1 detailed in section 1.5. […]
Data were again analysed by calculating % Max control values for each sample. […]

Test [1] deals with T2, biotinylated recombinant human trimeric ARG2 enzyme (Homo sapiens, UniProt P78540, E275H/R327K).
T2 construct: His10 (after a GGG linker) (C); made in house; host or cells: E. coli BL21 (DE3)
T2 sequence (P78540 with tags, fused parts or gaps E275H/R327K): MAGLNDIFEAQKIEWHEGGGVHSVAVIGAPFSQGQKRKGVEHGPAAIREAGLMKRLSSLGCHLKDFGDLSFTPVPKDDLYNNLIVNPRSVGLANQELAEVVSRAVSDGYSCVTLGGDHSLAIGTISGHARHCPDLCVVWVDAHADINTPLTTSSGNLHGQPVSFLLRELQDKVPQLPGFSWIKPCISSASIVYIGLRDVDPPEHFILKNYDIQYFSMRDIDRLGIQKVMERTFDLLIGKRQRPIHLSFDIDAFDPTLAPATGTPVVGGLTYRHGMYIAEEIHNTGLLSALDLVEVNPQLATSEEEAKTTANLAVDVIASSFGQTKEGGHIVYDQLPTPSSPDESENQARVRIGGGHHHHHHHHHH
Kind of test: C0020187 IgG epitope competition HTRF assay. The class given is binding. Particulars: clones in scFv format, FIG. 8; read-out: 18° IgG epitope competition assay IC50. The text has this:
Two thousand and twenty four scFv chosen at random from selection rounds 3 and 4 of the targeted mutagenesis approach described in section 2.2, 2.3 and 2.4 were expressed in E. coli to produce unpurified periplasmic scFv. Those scFv capable of competing with C0020187 IgG for binding to recombinant human trimeric ARG2 enzyme (i.e., those scFv that bind at or near the epitope bound by C0020187 IgG) were elucidated in a competition format assay, using the HTRF™ platform. […]
A ‘Maximum’ binding signal was determined by analysing the binding of C0020187 IgG to biotinylated recombinant human trimeric ARG2 enzyme in the absence of competitor scFv. […] Finally, a ‘Background’ signal was determined by analysing the fluorescence generated in the absence of C0020187 IgG.
Unpurified periplasmic scFv were supplied in sample buffer consisting of 200 mM tris base, pH 7.4, 0.5 mM EDTA, and 0.5 M sucrose. […] Assay plates were sealed and then incubated overnight at room temperature in the dark, prior to measuring time-resolved fluorescence at 620 and 665 nm emission wavelengths on a fluorescence plate reader.
Data were analysed by calculating % Delta F values for each sample. % Delta F was determined according to equation 1. […]
Data were again analysed by calculating the % Delta F and % Control binding values for each sample. […]

One may read the IC50 as the concentration that gives 50% inhibition.

B1: C0021142: anti-ARG2 antibody, VH SEQ ID NO: 232, VL SEQ ID NO: 237 (antibody, listed as Homo sapiens, V domains shown)
VH: EVQLLESGGGLVQPGGSLRLSCAASGFTFSSYAMSWVRQAPGKGLEWVSAHTHSPGSTYYADSVKGRFTISRDNSKNTLYLQMNSLRAEDTAVYYCARLRADLGLYMDLWGRGTLVTVSS
VL: QSVLTQPPSVSAAPGQKVTISCSGSSSNIGNHYVSWYQQLPGTAPKLLIYDNSERPSGVPDRFSGSKSGTSATLGITGLQTGDEADYYCGTWDSSLSALVFGGGTKLTVL
modifications: C0021142
As for B1, the figures for the IC50 (in the test with trimeric human ARG2; in test [1]) were 97.6 nM and 57.8 nM, respectively.
